# B1: anti-TrkB chicken-derived clone F5 (antibody, V domains shown)
# VH: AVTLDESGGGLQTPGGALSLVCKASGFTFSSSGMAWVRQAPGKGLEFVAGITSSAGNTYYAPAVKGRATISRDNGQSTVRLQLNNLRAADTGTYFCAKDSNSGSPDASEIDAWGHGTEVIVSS
# VL: QAALTQPASVSANPGETVKITCSGYKSYYGWYQQKSPGSAPVTVIYDNTNRPSNIPSRFSGSTSGSTATLTITGVQADDEAVYYCGNADHSYVGVFGAGTTLTVL
# notes: chimeric chicken-human mAb
# B2: anti-TrkB clone 3D06 (antibody, V domains shown)
# VH: EVQLVQSGAEVKKPGESLKISCQGSGYTFTNYWIAWVRQMPGKGLEWMGIIYPGDSDTRYSPSFQGQVTISADKSISTAYLQWSSLKASDTAMYYCAIGYDYGAFDIWGQGTMVTVSS
# VL: QPVLTQPPSASGTPGQRVSISCSGSNSNIGSNSVYWYQQLPGTAPKLLIYRNNQRPSGVPDRFSGSKSGTSASLAISGLRSEDEADYYCAAWDDSLSGYVFGTGTQLTVL
# notes: full-length IgG
# B3: anti-TrkB clone 4D01 (antibody, V domains shown)
# VH: EVQLVQSGAEVKKPGESLKISCKGSRYSFTSYWIGWVRQMPGKGLEWMGIIYPGDSDTRYSPSFQGQVTISADKSISTAYLQWSSLKASDTAMYYCARLKDGAFDIWGQGTMVTVSS
# VL: QAVLTQPPSASGTPGQRVTISCSGSSSNIEGNYVHWYQQLPGAAPKVLIYRNNQRPSGVPDRFSGSKSGTSASLAISGLRSEDETDYFCAAWDDSLNGYVFGAGTKVTVL
# notes: full-length IgG
# B4: anti-TrkB clone 2H05 (antibody, V domains shown)
# VH: EVQLVESGAEVKKPGESLRISCKGSGYSFTNNWINWVRQMPGKGLEWMGRIDPDDSYTNYSPSFQGHVIFSADKSSNTVYLQWSSLEASDTAMYYCARRAQGGGGYDYWGQGTLVTVSS
# VL: QSVLTQPSSVSGAPGQRVTISCTGSSSNIGAGYGVHWYQQLPGTAPKLLIYDDINRPSGVPDRFSGSKSGTSASLAITGLRAEDEADYYCQSYDTSRGGLYVFGSGTKLTVL
# notes: full-length IgG
# B5: anti-TrkB clone 3B06 (antibody, V domains shown)
# VH: EVQLVQSGAEVKEPGASVKVSCKASGYTFTNYAMHWVRQAPGQRLEWMGWINPNTGGTNYAQKFQGRVTMTRDTSISTAYMELSSLRSDDTAVYYCARGGGGLVFWGQGTLVTVSS
# VL: DIVMTQTPLSLPVTLGQPASISCRSSQSLVDRDGNTYLNWFRQRPGQSPRRLIYKVSNRDSGVPGTFSGSGSGTDFTLKISRVEADDVGVYFCMQATHWPPTFGQGTKVEI
# notes: full-length IgG
# B6: anti-TrkB clone 3D03 (antibody, V domains shown)
# VH: EVQLVQSGAEVKKPGESLKISCKGSGYSFTSYWIGWVRQMPGKGLEWMGIIYPGDSDTRYSPSFQGQVTISADKSISTAYLQWSSLKASDTAMYYCARLGGSLPIDYWGQGTLVTVSS
# VL: QSVLTQPPSVSVSPGQTASITCSGDKLGDKYVSWYQQKPGQSPVLVIYQDSKRPSGIPERFSGSNSGSTATLTISGTQALDEADYYCQAWDNNIGVFGGGTKLTVL
# notes: full-length IgG
# B7: anti-TrkB clone 2E08 (antibody, V domains shown)
# VH: QVQLVQSGAEVKKPGESLKISCTGSGYRFSHYWIGWVRQMPGKGLEWMGMIYPDDSDTRYSPSFQGQVTISADKSINTAYLQWTSLRASDSAIYYCATGVISGTDYWGQGTLVTVSS
# VL: SYVLTQPPSVSVSPGQTARITCSGDKLGDKYVSWYQLKPGQSPVVVIYQDNKRPSGIPERFSASNSENTGTLTISGTQAMDEADYYCQTWDSGTGVFGTGTKLTVL
# notes: full-length IgG
# Columns and labels:
# [1] = biological target: TrkB in PathHunter eXpress TrkB Functional Assay cells (modified U2OS); experiment: cell-based or functional assay
# [2] = biological target: T1, human TrkB-His (human, UniProt Q16620 32-430); experiment: BLI off-rate, mAb immobilized, 300 nM TrkB-His
# T1 construct: in-house fusion of the TrkB ECD with poly-His, HEK293; also called huTrkB-His; hTrkB-His; not shown: poly-His tag
# [3] = biological target: T2, human TrkB-ECD-GST (human, UniProt Q16620 32-430); experiment: ELISA
# T2 construct: in-house fusion, HEK293; also called hTrkB-ECD-GST; human TrkB-GST; not shown: glutathione S-transferase (GST) fusion part
# [4] = biological target: T3, mouse TrkB-ECD-GST (mouse, UniProt P15209 32-429); experiment: ELISA
# T3 construct: extracellular domain; in-house fusion, HEK293; also called mTrkB-ECD-GST; mTrkB (ELISA); not shown: glutathione S-transferase (GST) fusion part
Binder,TrkB activation (EC50) [1],koff [2],binding result [3],binding result [4]
B1,0.046 µg/mL,0.00163 s⁻¹,–,–
B2,–,–,no binding (tested: up to 10 µg/mL),no binding (tested: up to 10 µg/mL)
B3,–,–,no binding (tested: up to 10 µg/mL),no binding (tested: up to 10 µg/mL)
B4,–,–,no binding (tested: up to 10 µg/mL),no binding (tested: up to 10 µg/mL)
B5,–,–,no binding (tested: up to 10 µg/mL),no binding (tested: up to 10 µg/mL)
B6,–,–,no binding (tested: up to 10 µg/mL),no binding (tested: up to 10 µg/mL)
B7,–,–,no binding (tested: up to 10 µg/mL),no binding (tested: up to 10 µg/mL)

# — patent US20260092121A1 (TALEM THERAPEUTICS, published 2026)
